# Assays:
# [1] = molecular target: RPA2 (subunit of the RPA trimer) (UniProt P15927); test: MST with dye-labelled RPA trimer
# [2] = molecular target: RPA2 (subunit of the RPA trimer) (UniProt P15927); test: peptide-bead pull-down, anti-RPA2 blot
# RPA2 WH (Homo sapiens) [3] = molecular target: RPA2 WH (Homo sapiens) (UniProt P15927); test: NMR; details: cited from earlier work
# RPA2 WH (Homo sapiens) [4] = molecular target: RPA2 WH (Homo sapiens) (UniProt P15927); test: ITC; details: cited from earlier work
# [5] = molecular target: human replication protein A (RPA) heterotrimer, recombinant (human) (UniProt P27694)
# [6] = molecular target: RPA trimer lacking the RPA2 winged-helix domain (RPA-ΔWH) (human) (UniProt P27694)
# [7] = molecular target: human replication protein A (RPA) heterotrimer, recombinant (human) (UniProt P27694); remark: listed apart in the source
# Chain of UNG catalytic domain (UNG-CD), starting at UNG2 aa 93 (P13051 93-313): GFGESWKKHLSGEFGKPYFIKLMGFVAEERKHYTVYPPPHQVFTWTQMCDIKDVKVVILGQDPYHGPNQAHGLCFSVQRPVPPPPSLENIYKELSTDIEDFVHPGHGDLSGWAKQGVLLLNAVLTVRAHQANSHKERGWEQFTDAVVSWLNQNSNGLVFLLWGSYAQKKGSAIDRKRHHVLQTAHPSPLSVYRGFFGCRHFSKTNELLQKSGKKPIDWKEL
# Chain of human replication protein A (RPA) heterotrimer, recombinant (human) (P27694 whole entry, chain 1 of 3, the tested form may be a part): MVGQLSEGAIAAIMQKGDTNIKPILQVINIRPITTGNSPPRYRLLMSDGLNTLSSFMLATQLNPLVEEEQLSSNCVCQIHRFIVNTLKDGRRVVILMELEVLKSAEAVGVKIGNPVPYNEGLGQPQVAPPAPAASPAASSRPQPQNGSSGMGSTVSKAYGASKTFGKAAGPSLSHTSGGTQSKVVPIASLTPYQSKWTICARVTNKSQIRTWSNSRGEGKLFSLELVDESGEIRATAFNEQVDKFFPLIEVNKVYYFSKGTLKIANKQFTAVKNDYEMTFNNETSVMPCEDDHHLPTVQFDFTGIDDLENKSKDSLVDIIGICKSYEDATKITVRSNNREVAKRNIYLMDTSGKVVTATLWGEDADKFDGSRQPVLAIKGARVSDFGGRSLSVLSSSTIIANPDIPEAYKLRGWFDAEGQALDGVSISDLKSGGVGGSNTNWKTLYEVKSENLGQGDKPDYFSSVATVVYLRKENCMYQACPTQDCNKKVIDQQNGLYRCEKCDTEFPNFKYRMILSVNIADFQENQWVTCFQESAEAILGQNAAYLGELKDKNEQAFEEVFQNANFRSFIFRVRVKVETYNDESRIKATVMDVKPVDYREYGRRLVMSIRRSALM
# Chain of human replication protein A (RPA) heterotrimer, recombinant (human) (P15927 whole entry, chain 2 of 3, further chain, the tested form may be a part): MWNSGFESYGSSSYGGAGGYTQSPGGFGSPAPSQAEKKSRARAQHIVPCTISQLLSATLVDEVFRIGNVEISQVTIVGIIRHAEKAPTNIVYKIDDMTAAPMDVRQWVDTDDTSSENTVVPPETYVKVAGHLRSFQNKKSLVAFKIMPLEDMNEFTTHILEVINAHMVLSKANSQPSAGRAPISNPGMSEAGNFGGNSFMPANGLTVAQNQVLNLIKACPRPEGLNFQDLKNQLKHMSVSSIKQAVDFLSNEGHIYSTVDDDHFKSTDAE
# Chain of human replication protein A (RPA) heterotrimer, recombinant (human) (P35244 whole entry, chain 3 of 3, further chain, the tested form may be a part): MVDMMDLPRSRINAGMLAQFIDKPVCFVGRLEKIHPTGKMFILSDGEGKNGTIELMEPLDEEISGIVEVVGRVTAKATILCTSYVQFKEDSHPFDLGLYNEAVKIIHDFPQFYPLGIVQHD
# Chain of RPA2 WH (Homo sapiens) (P15927 172-270): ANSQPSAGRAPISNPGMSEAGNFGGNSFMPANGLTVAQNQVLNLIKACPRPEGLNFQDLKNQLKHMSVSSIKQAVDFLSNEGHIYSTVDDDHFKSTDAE
# Chain of RPA trimer lacking the RPA2 winged-helix domain (RPA-ΔWH) (human) (P27694 whole entry, stated change not applied, chain 1 of 3, the tested form may be a part): as the sequence (P27694 whole entry, chain 1 of 3, the tested form may be a part) above
# Chain of RPA trimer lacking the RPA2 winged-helix domain (RPA-ΔWH) (human) (chain, as listed by the source mutant, chain 2 of 3): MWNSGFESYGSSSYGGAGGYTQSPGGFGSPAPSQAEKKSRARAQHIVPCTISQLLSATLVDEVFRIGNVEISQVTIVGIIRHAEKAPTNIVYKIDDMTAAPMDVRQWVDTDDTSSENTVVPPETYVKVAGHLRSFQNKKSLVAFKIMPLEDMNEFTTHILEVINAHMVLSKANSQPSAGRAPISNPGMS
# Chain of RPA trimer lacking the RPA2 winged-helix domain (RPA-ΔWH) (human) (chain, as listed by the source mutant, chain 3 of 3): as the sequence (P35244 whole entry, chain 3 of 3, further chain, the tested form may be a part) above
# Chain of UNG2 peptide (24 aa) (P13051 whole entry): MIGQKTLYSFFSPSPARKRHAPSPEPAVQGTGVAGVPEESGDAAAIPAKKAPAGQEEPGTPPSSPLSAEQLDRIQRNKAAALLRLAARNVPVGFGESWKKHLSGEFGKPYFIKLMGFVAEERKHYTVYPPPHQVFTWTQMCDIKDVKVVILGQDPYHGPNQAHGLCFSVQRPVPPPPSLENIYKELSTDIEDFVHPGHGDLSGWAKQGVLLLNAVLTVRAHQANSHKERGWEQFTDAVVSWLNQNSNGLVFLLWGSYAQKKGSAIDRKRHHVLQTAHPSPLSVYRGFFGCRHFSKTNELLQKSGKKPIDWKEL
# Chain of UNG2 peptide (16 aa) (P13051 whole entry): as above
substance,measurement,setting,value
UNG2 57-90 (from UniProt P13051) pEV-34 (pT60) peptide,binding against the reference,"[1]; reference: EV-34 unphosphorylated peptide, sites T60",weaker
UNG2 57-90 (from UniProt P13051) pEV-34 (pT60) peptide beads,binding against the reference,"[2]; reference: EV-34 unphosphorylated peptide beads, sites T60",weaker
"UNG2 57-90 (from UniProt P13051) ppEV-34 (pT60, pS64) peptide",binding against the reference,"[1]; reference: EV-34 unphosphorylated peptide, sites T60,S64",weaker
same,binding against the reference,"[1]; reference: pEV-34 (pT60) peptide, sites S64",weaker
"UNG2 57-90 (from UniProt P13051) ppEV-34 (pT60, pS64) peptide beads",binding against the reference,"[2]; reference: EV-34 unphosphorylated peptide beads, sites T60,S64",weaker
same,binding against the reference,"[2]; reference: pEV-34 (pT60) peptide beads, sites S64",weaker
UNG2 peptide (16 aa) (from UniProt P13051),Kd,RPA2 WH (Homo sapiens) [3],< 1000 nM
UNG2 peptide (24 aa) (from UniProt P13051),Kd,RPA2 WH (Homo sapiens) [4],6.6 µM
"UNG catalytic domain (UNG-CD), starting at UNG2 aa 93 (from UniProt P13051-1 93-313) (domain or fragment)",fold decrease in uracil excision from RPA (1 µM)-coated against naked ssDNA (100 nM U10-25*),[5],1000 fold
same,fold increase of enzyme concentration needed to convert similar amounts of dsDNA substrate with 500 nM RPA-ΔWH,[6],50 fold
same,fold increase of enzyme concentration needed to convert similar amounts of dsDNA substrate with 500 nM RPA-WT,[7],200 fold
